# Ends that are not written are not given here.
# T1: His-tagged P3028 (human, also: His tag, length and end not given here)
# T1 construct: in solution at 0.5 ug/mL, detected with mouse anti-His antibody and rabbit anti-mouse peroxidase (rampo); also called PGE73; His-tag-P3028; not shown: His tag
# T1 peptide: VFDEFKPLVEEPQNLIK
# Molecular target: T1, His-tagged P3028
# Experiment: PEPSCAN ELISA, peptide on chip;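 further: binding detected by peroxidase ELISA with ABTS, OD405 colour imaged by CCD camera before and after staining, raw OD405 reported as rampo units, air-bubble wells scored 0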
row,Binder,RAMPO Score
1,KKKDTFFVKLSLFTER [SEQ ID NO 290],386 rampo units
2,KKLDTFFRKLSLFTER [SEQ ID NO 330],365 rampo units
3,KKLDTFFLKLSLFTER [SEQ ID NO 328],411 rampo units
4,KKQDTFFVKLSLFTER [SEQ ID NO 293],473 rampo units
5,KKVDTFFVKLSLFTER [SEQ ID NO 297],377 rampo units
6,KKLDTFFVKLTLFTER [SEQ ID NO 349],520 rampo units
7,KKLDTFFVKLNLFTER [SEQ ID NO 347],451 rampo units
8,KKLDTFFVKMSLFTER [SEQ ID NO 336],460 rampo units
9,KKLDTFFVKLSTFTER [SEQ ID NO 358],437 rampo units
10,KKLDWFFVKLSLFTER [SEQ ID NO 311],418 rampo units
11,KKLDTTFVKLSLFTER [SEQ ID NO 318],481 rampo units
12,KKLDTFFVKYSLFTER [SEQ ID NO 344],382 rampo units
13,KKLDTFFVKSSLFTER [SEQ ID NO 341],351 rampo units
14,KKLDTMFVKLSLFTER [SEQ ID NO 315],467 rampo units
15,KKLDTFFVKLSHFTER [SEQ ID NO 351],460 rampo units
16,KKLDTFFVKVSLFTER [SEQ ID NO 343],658 rampo units
17,KKLDTFFPKLSLFTER [SEQ ID NO 329],456 rampo units
18,KKLDTFQVKLSLFTER [SEQ ID NO 322],511 rampo units
19,KKLDTFLVKLSLFTER [SEQ ID NO 320],517 rampo units
20,KKLDTFFVKFSLFTER [SEQ ID NO 333],403 rampo units
21,KKTDTFFVKLSLFTER [SEQ ID NO 296],451 rampo units
22,KKLDTFMVKLSLFTER [SEQ ID NO 321],712 rampo units
23,KKLDCFFVKLSLFTER [SEQ ID NO 304],449 rampo units
24,KKLDTFFVKLSAFTER [SEQ ID NO 350],462 rampo units

row,Binder,RAMPO Score
1,KKLYTFFVKLSLFTER [SEQ ID NO 303],422 rampo units
2,KKLDTFFVRLSLFTER [SEQ ID NO 331],374 rampo units
3,KKLDTFFVKPSLFTER [SEQ ID NO 338],436 rampo units
4,KKSDTFFVKLSLFTER [SEQ ID NO 295],393 rampo units
5,KKLDNFFVKLSLFTER [SEQ ID NO 306],436 rampo units
6,KKLDTFFVKLHLFTER [SEQ ID NO 345],535 rampo units
7,KKLDTPFVKLSLFTER [SEQ ID NO 317],497 rampo units
8,KKNDTFFVKLSLFTER [SEQ ID NO 292],374 rampo units
9,KKLDTFFVKTSLFTER [SEQ ID NO 342],399 rampo units
10,KKLDTFFVKQSLFTER [SEQ ID NO 339],470 rampo units
11,KKLDTFFVKLQLFTER [SEQ ID NO 348],768 rampo units
12,KKLDTFFVKISLFTER [SEQ ID NO 335],415 rampo units
13,KKLETFFVKLSLFTER [SEQ ID NO 299],417 rampo units
14,KKLDTFTVKLSLFTER [SEQ ID NO 324],517 rampo units
15,KKLDTFVVKLSLFTER [SEQ ID NO 325],527 rampo units
16,KKLDTAFVKLSLFTER [SEQ ID NO 313],575 rampo units
17,KKLDTFFGKLSLFTER [SEQ ID NO 327],379 rampo units
18,KKLDTNFVKLSLFTER [SEQ ID NO 316],446 rampo units
19,KKLDTFFVKLSRFTER [SEQ ID NO 356],483 rampo units
20,KKLITFFVKLSLFTER [SEQ ID NO 300],430 rampo units
21,KKLDYFFVKLSLFTER [SEQ ID NO 312],425 rampo units
22,KKLDTFFVKLSNFTER [SEQ ID NO 354],462 rampo units
23,KKMDTFFVKLSLFTER [SEQ ID NO 291],460 rampo units
24,KKLDTFFVKNSLFTER [SEQ ID NO 337],365 rampo units

row,Binder,RAMPO Score
1,KKLDPFFVKLSLFTER [SEQ ID NO 307],427 rampo units
2,KKLDTFFFKLSLFTER [SEQ ID NO 326],358 rampo units
3,KKLDSFFVKLSLFTER [SEQ ID NO 310],458 rampo units
4,KKLDTFFVKASLFTER [SEQ ID NO 332],426 rampo units
5,KKLDTFFVKRSLFTER [SEQ ID NO 340],439 rampo units
6,KKRDTFFVKLSLFTER [SEQ ID NO 294],370 rampo units
7,KKLDTFFVKLSMFTER [SEQ ID NO 353],499 rampo units
8,KKLDTFFVKLSIFTER [SEQ ID NO 352],456 rampo units
9,KKLDTFFVKLSQFTER [SEQ ID NO 355],651 rampo units
10,KKLDTFFVKLSVFTER [SEQ ID NO 359],545 rampo units
11,KKLDQFFVKLSLFTER [SEQ ID NO 308],535 rampo units
12,KKLDRFFVKLSLFTER [SEQ ID NO 309],430 rampo units
13,KKLWTFFVKLSLFTER [SEQ ID NO 302],443 rampo units
14,KKLDTFSVKLSLFTER [SEQ ID NO 323],700 rampo units
15,KKLVTFFVKLSLFTER [SEQ ID NO 301],424 rampo units
16,KKLDTIFVKLSLFTER [SEQ ID NO 314],466 rampo units
17,KKLDTFFVKLSWFTER [SEQ ID NO 360],409 rampo units
18,KKLDTFFVKGSLFTER [SEQ ID NO 334],495 rampo units
19,KKLDTVFVKLSLFTER [SEQ ID NO 319],547 rampo units
20,KKLATFFVKLSLFTER [SEQ ID NO 298],494 rampo units
21,KKLDMFFVKLSLFTER [SEQ ID NO 305],475 rampo units
22,KKLDTFFVKLMLFTER [SEQ ID NO 346],744 rampo units
23,KKLDTFFVKLSSFTER [SEQ ID NO 357],478 rampo units

# Reference: patent US20180177842A1 (CANIMGUIDE THERAPEUTICS, published 2018)
